Where two headings read alike, the source gives them in different places.
Tests used:
[1] = tested on: SARS-CoV-2 virus; test: microbe, parasite or virus in culture; conditions: Vero-E6
[2] = tested on: patients with moderate or severe COVID-19; conditions: for clinical improvement rate day 28, (%): called clinical remission rate in b66; for Time for clinical improvement (days), median: called clinical remission; for Time for radiographic improvement (days), median: chest CT, absorption of inflammation; for Time for Viral nucleic acid to turn negative (days), median: real-time fluorescence quantitative PCR; for serious adverse reaction (cases): safety analysis set, the IFN-α case was respiratory failure
[3] = tested on: Vero-E6 cells; test: Cytotoxicity assay on Vero-E6 cells (CCK-8, 48 hours)
Procedure: • 1) Vero-E6 cells were inoculated in a 96-well plate at 1×10^4 cells per well the day before; • 2) The cell state was observed until the confluence reached about 50%. The rSIFN-co was diluted by 2.17-fold with 2×DMEM medium containing 4% […], as the highest concentration, namely 6×10^8 pg/ml.
The plates were cultured in an incubator at 37° C. and 5% CO2; • 4) 48 hours after adding the drug, 1/10 volume of Cell Counting […] (CCK-8) was directly added to the cell culture medium, mixed well, and air bubbles should be avoided. Cells were incubated in an incubator at 37° C. for 1 hour until the color turned into orange. The blank group was set as zero, and the absorbance at 450 nm was measured with a multifunctional microplate reader, and the survival rate was calculated as follows: survival rate (%)=OD450 of the test group/OD450 of the control group×100%.

[4] = tested on: SARS-CoV-2 virus; conditions: for EC50 Experiment 1 / EC50 Experiment 2 / EC50 Experiment 3 / EC50 means: Vero-E6; for EC50 means: mean of 3 experiments
[5] = day 7, percent of group, added to baseline treatment
[6] = day 14, percent of group, added to baseline treatment
[7] = day 28, percent of group, added to baseline treatment

CCN(CC)CCCC(C)Nc1ccnc2cc(Cl)ccc12 (stereo not shown) [Chloroquine]
EC50 ([1]; Severe acute respiratory syndrome coronavirus 2, Vero C1008, read-out: EC50 Experiment 1, MOI: 0.005 (50 PFU)): 1.7 µM
EC50 ([1]; Severe acute respiratory syndrome coronavirus 2, Vero C1008, read-out: EC50 Experiment 1, MOI: 0.05 (500 PFU)): 3.65 µM
EC50 ([1]; Severe acute respiratory syndrome coronavirus 2, Vero C1008, read-out: EC50 Experiment 1, MOI: 0.5 (5000 PFU)): 5.25 µM
EC50 ([1]; Severe acute respiratory syndrome coronavirus 2, Vero C1008, read-out: EC50 Experiment 2, MOI: 0.005 (50 PFU)): 1.77 µM
EC50 ([1]; Severe acute respiratory syndrome coronavirus 2, Vero C1008, read-out: EC50 Experiment 2, MOI: 0.05 (500 PFU)): 4.23 µM
EC50 ([1]; Severe acute respiratory syndrome coronavirus 2, Vero C1008, read-out: EC50 Experiment 2, MOI: 0.5 (5000 PFU)): 5.72 µM
EC50 ([1]; Severe acute respiratory syndrome coronavirus 2, Vero C1008, read-out: EC50 Experiment 3, MOI: 0.005 (50 PFU)): 2.34 µM
EC50 ([1]; Severe acute respiratory syndrome coronavirus 2, Vero C1008, read-out: EC50 Experiment 3, MOI: 0.05 (500 PFU)): 2.34 µM
EC50 ([1]; Severe acute respiratory syndrome coronavirus 2, Vero C1008, read-out: EC50 Experiment 3, MOI: 0.5 (5000 PFU)): 5.04 µM
EC50 ([1]; Severe acute respiratory syndrome coronavirus 2, Vero C1008, read-out: EC50 means, MOI: 0.005 (50 PFU), mean of 3 experiments): 1.94 µM
EC50 ([1]; Severe acute respiratory syndrome coronavirus 2, Vero C1008, read-out: EC50 means, MOI: 0.05 (500 PFU), mean of 3 experiments): 3.41 µM
EC50 ([1]; Severe acute respiratory syndrome coronavirus 2, Vero C1008, read-out: EC50 means, MOI: 0.5 (5000 PFU), mean of 3 experiments): 5.34 µM

IFN-α
Radiographic Improvement Rate Day 7, (%) ([2]; Day 7): (25.0) %
Rate for Viral nucleic acid to turn negative Day 7, (%) ([2]; Day 7): (31.3) %
Radiographic Improvement Rate Day 14, (%) ([2]; Day 14): (66.7) %
Rate for Viral nucleic acid to turn negative Day 14, (%) ([2]; Day 14): (64.6) %
Radiographic Improvement Rate Day 28, (%) ([2]; Day 28): (79.2) %
Rate for Viral nucleic acid to turn negative Day 28, (%) ([2]; Day 28): (85.4) %
clinical improvement rate day 7, (%) ([2]; day 7): (6.3) %
7-level scale on day 7, 2: Not hospitalized, but unable to return to normal activities, (%) [2, 5]: (12.5) %
7-level scale on day 7, 3: Hospitalized, no need for supplemental oxygen, (%) [2, 5]: (25.0) %
7-level scale on day 7, 4: Hospitalized, requiring supplemental oxygen, (%) [2, 5]: (43.8) %
7-level scale on day 7, 5: Hospitalized, requiring nasal high-flow oxygen therapy or non-invasive mechanical ventilation, (%) [2, 5]: (16.7) %
7-level scale on day 7, 6: Hospitalized, requiring extracorporeal membrane oxygenation, invasive mechanical ventilation, or both, (%) [2, 5]: (2.0) %
clinical improvement rate day 14, (%) ([2]; day 14): (39.6) %
7-level scale on day 14, 2: Not hospitalized, but unable to return to normal activities, (%) [2, 6]: (43.8) %
7-level scale on day 14, 3: Hospitalized, no need for supplemental oxygen, (%) [2, 6]: (31.2) %
7-level scale on day 14, 4: Hospitalized, requiring supplemental oxygen, (%) [2, 6]: (16.7) %
7-level scale on day 14, 5: Hospitalized, requiring nasal high-flow oxygen therapy or non-invasive mechanical ventilation, (%) [2, 6]: (6.3) %
7-level scale on day 14, 6: Hospitalized, requiring extracorporeal membrane oxygenation, invasive mechanical ventilation, or both, (%) [2, 6]: (2.0) %
clinical improvement rate day 28, (%) ([2]; day 28): 77.1%
clinical improvement rate day 28, (%) ([2]; day 28, listed as IFN- α): (77.1) %
7-level scale on day 28, 2: Not hospitalized, but unable to return to normal activities, (%) [2, 7]: (91.6) %
7-level scale on day 28, 3: Hospitalized, no need for supplemental oxygen, (%) [2, 7]: (2.1) %
7-level scale on day 28, 4: Hospitalized, requiring supplemental oxygen, (%) [2, 7]: (4.2) %
7-level scale on day 28, 6: Hospitalized, requiring extracorporeal membrane oxygenation, invasive mechanical ventilation, or both, (%) [2, 7]: (2.1) %
Deterioration rate, (%) ([2]; human, in vivo): (2.1) %
Time for clinical improvement (days), median ([2]; added to baseline treatment): 14.0 days
Time for radiographic improvement (days), median [2]: 10.0 days
Time for Viral nucleic acid to turn negative (days), median [2]: 10.0 days
serious adverse reaction (cases) [2]: 1

B1: rSIFN-co: new type of genetically engineered interferon produced by changing 65 bases of the genetic code of IFN-α; amino acid sequence SEQ ID NO.2 (protein)
chain: MCDLPQTHSLGNRRALILLAQMRRISPFSCLKDRHDFGFPQEEFDGNQFQKAQAISVLEMIQQTFNLFSTKDSSAAWDESLLEKFYTELYQQLNDLEACVIQEVGVEETPLMNVDSILAVKKYFQRITLYLTEKKYSPCAWEVVRAEIMRSFSLSTNLQERLRRKE
modifications: rSIFN-co Synthetic amino acid sequence
CC50 Experiment 1 [3]: 651000 ng/mL
CC50 Experiment 2 [3]: 806000 ng/mL
CC50 Experiment 3 [3]: 680000 ng/mL
CC50 means ([3]; mean of 3 experiments): 712000 ng/mL
TI (CC50/EC50) ([4]; MOI: 0.005 (50 PFU)): 5.35×10^7
EC50 Experiment 1 ([4]; MOI: 0.005 (50 PFU)): 0.01531 ng/mL
EC50 Experiment 2 ([4]; MOI: 0.005 (50 PFU)): 0.01401 ng/mL
EC50 Experiment 3 ([4]; MOI: 0.005 (50 PFU)): 0.01058 ng/mL
EC50 means ([4]; MOI: 0.005 (50 PFU)): 0.0133 ng/mL
TI (CC50/EC50) ([4]; MOI: 0.005 (50 PFU), listed as Recombinant super-compound interferon (rSIFN-co)): 5.35 × 10^7
TI (CC50/EC50) ([4]; MOI: 0.05 (500 PFU)): 5.77×10^6
EC50 Experiment 1 ([4]; MOI: 0.05 (500 PFU)): 0.1418 ng/mL
EC50 Experiment 2 ([4]; MOI: 0.05 (500 PFU)): 0.1257 ng/mL
EC50 Experiment 3 ([4]; MOI: 0.05 (500 PFU)): 0.1024 ng/mL
EC50 means ([4]; MOI: 0.05 (500 PFU)): 0.1233 ng/mL
TI (CC50/EC50) ([4]; MOI: 0.05 (500 PFU), listed as Recombinant super-compound interferon (rSIFN-co)): 5.77 × 10^6
TI (CC50/EC50) ([4]; MOI: 0.5 (5000 PFU)): 4.71×10^6
EC50 Experiment 1 ([4]; MOI: 0.5 (5000 PFU)): 0.1886 ng/mL
EC50 Experiment 2 ([4]; MOI: 0.5 (5000 PFU)): 0.1397 ng/mL
EC50 Experiment 3 ([4]; MOI: 0.5 (5000 PFU)): 0.1253 ng/mL
EC50 means ([4]; MOI: 0.5 (5000 PFU)): 0.1512 ng/mL
TI (CC50/EC50) ([4]; MOI: 0.5 (5000 PFU), listed as Recombinant super-compound interferon (rSIFN-co)): 4.71 × 10^6
inhibition of SARS-CoV-2 replication in Vero-E6 cell model ([4]; result in words): dose-dependent manner
Radiographic Improvement Rate Day 7, (%) ([2]; Day 7): (43.5) %
Rate for Viral nucleic acid to turn negative Day 7, (%) ([2]; Day 7): (50.0) %
Radiographic Improvement Rate Day 7, differences (rate difference) ([2]; Day 7, rSIFN-co vs IFN-α): 18.5
Rate for Viral nucleic acid to turn negative Day 7, differences (rate difference) ([2]; Day 7, rSIFN-co vs IFN-α): 18.7
Radiographic Improvement Rate Day 14, (%) ([2]; Day 14): (84.8) %
Rate for Viral nucleic acid to turn negative Day 14, (%) ([2]; Day 14): (76.1) %
Radiographic Improvement Rate Day 14, differences (rate difference) ([2]; Day 14, rSIFN-co vs IFN-α): 18.1
Rate for Viral nucleic acid to turn negative Day 14, differences (rate difference) ([2]; Day 14, rSIFN-co vs IFN-α): 11.5
Radiographic Improvement Rate Day 28, (%) ([2]; Day 28): (91.3) %
Rate for Viral nucleic acid to turn negative Day 28, (%) ([2]; Day 28): (97.8) %
Radiographic Improvement Rate Day 28, differences (rate difference) ([2]; Day 28, rSIFN-co vs IFN-α): 12.1
Rate for Viral nucleic acid to turn negative Day 28, differences (rate difference) ([2]; Day 28, rSIFN-co vs IFN-α): 12.4
clinical improvement rate day 7, (%) ([2]; day 7): (10.9) %
7-level scale on day 7, 2: Not hospitalized, but unable to return to normal activities, (%) [2, 5]: (13.0) %
7-level scale on day 7, 3: Hospitalized, no need for supplemental oxygen, (%) [2, 5]: (19.6) %
7-level scale on day 7, 4: Hospitalized, requiring supplemental oxygen, (%) [2, 5]: (50.0) %
7-level scale on day 7, 5: Hospitalized, requiring nasal high-flow oxygen therapy or non-invasive mechanical ventilation, (%) [2, 5]: (17.4) %
clinical improvement rate day 7, differences (rate difference) ([2]; day 7, rSIFN-co vs IFN-α): 4.6
clinical improvement rate day 14, (%) ([2]; day 14): (65.2) %
7-level scale on day 14, 2: Not hospitalized, but unable to return to normal activities, (%) [2, 6]: (58.7) %
7-level scale on day 14, 3: Hospitalized, no need for supplemental oxygen, (%) [2, 6]: (21.7) %
7-level scale on day 14, 4: Hospitalized, requiring supplemental oxygen, (%) [2, 6]: (17.4) %
7-level scale on day 14, 5: Hospitalized, requiring nasal high-flow oxygen therapy or non-invasive mechanical ventilation, (%) [2, 6]: (2.2) %
clinical improvement rate day 14, differences (rate difference) ([2]; day 14, rSIFN-co vs IFN-α): 25.6
7-level scale on day 28, 2: Not hospitalized, but unable to return to normal activities, (%) [2, 7]: (95.6) %
7-level scale on day 28, 3: Hospitalized, no need for supplemental oxygen, (%) [2, 7]: (2.2) %
7-level scale on day 28, 4: Hospitalized, requiring supplemental oxygen, (%) [2, 7]: (2.2) %
clinical improvement rate day 28, differences (rate difference) ([2]; day 28, rSIFN-co vs IFN-α): 16.4
Time for clinical improvement (days), median ([2]; added to baseline treatment): 11.5 days
Time for radiographic improvement (days), median [2]: 8.0 days
Time for Viral nucleic acid to turn negative (days), median [2]: 7.0 days
Deterioration rate, differences (rate difference) ([2]; rSIFN-co vs IFN-α): −2.1
Time for Viral nucleic acid to turn negative, differences (hazard ratio) ([2]; rSIFN-co vs IFN-α, Cox model): 1.74
Time for clinical improvement, differences (hazard ratio) ([2]; rSIFN-co vs IFN-α, Cox model): 1.76
Time for radiographic improvement, differences (hazard ratio) ([2]; rSIFN-co vs IFN-α, Cox model): 2.19
serious adverse reaction (cases) [2]: no serious adverse reaction

— US20230364193A1, “COMBINED DRUG FOR TREATING CORONARIVUS DISEASE 2019” (SICHUAN UNIVERSITY WEST CHINA HOSPITAL, priority 2020, published 2023)
